Experiments:
TCEAL4 = TCEAL4 (UniProt Q96EI5); experiment: GFP-NanoTrap IP, blot of lower MW TCEAL4; details: reference: wild type GFP-USP7; sites S18
TRIM27 = TRIM27 (UniProt P14373); experiment: GFP-NanoTrap IP of GFP-USP7, immunoblot; details: reference: wild type GFP-USP7; sites S18

binding against the reference (TCEAL4): stronger
binding against the reference (TRIM27): stronger
Substance: USP7 (from UniProt Q93009) S18A
